Patent US9617572B2, “Methods of producing 7-carbon chemicals via aromatic compounds” (INVISTA North America S.á r.l., priority 2012, dated 2017)
Each block holds one molecule with its values, some of them ahead of it.

Key:
Format in all cases: biochemical
[1] = Carboxylate reductase activity assay (N7-acetyl-7-aminoheptanoate to N7-acetyl-7-aminoheptanal); details: purified enzyme enhanced by sfp gene product, 2 mM N7-acetyl-7-aminoheptanoate, 1 mM ATP, 1 mM NADPH, pH 7.5, room temperature, 20 min, against empty vector control
Experimental: The activity of each of the N-terminal His-tagged carboxylate reductases of SEQ ID NOs: 3, 6, and 7 (see Example 4, and FIGS. 7B, 7E, and 7F) for converting N7-acetyl-7-aminoheptanoate to N7-acetyl-7-aminoheptanal was assayed in triplicate in a buffer composed of a final concentration of 50 mM HEPES buffer (pH=7.5), 2 mM N7-acetyl-7-aminoheptanoate, 10 mM MgCl2, 1 mM ATP, and 1 mM NADPH. The assays were initiated by adding purified carboxylate reductase and phosphopantetheine transferase or the empty vector control to the assay buffer containing the N7-acetyl-7-aminoheptanoate then incubated at room temperature for 20 min. The consumption of NADPH was monitored by absorbance at 340 nm.

[2] = Thioesterase enzyme activity assay using pimeloyl-CoA as substrate, forming pimelate; details: 667 μM pimeloyl-CoA, 0.8 μM tesB gene product, pH 7.4, 37° C., 20 min, compared to empty vector control
Experimental: A sequence encoding an N-terminal His tag was added to the tesB gene from Escherichia coli that encodes a thioesterase (SEQ ID NO 1, see FIG. 7A), such that an N-terminal HIS tagged thioesterase could be produced. The modified tesB gene was cloned into a pET15b expression vector under control of the T7 promoter. The expression vector was transformed into a BL21[DE3] E. coli host. The resulting recombinant E. coli strain was cultivated at 37° C. in a 500 mL shake flask culture containing 50 mL Luria Broth (LB) media and antibiotic selection pressure, with shaking at 230 rpm. The culture was induced overnight at 17° C. using 0.5 mM IPTG.
The pellet from the induced shake flask culture was harvested via centrifugation. The pellet was resuspended and lysed in Y-per™ solution (ThermoScientific, Rockford, Ill.). The cell debris was separated from the supernatant via centrifugation. […]
The enzyme activity assay was performed in triplicate in a buffer composed of 50 mM phosphate buffer (pH=7.4), 0.1 mM Ellman's reagent, and 667 μM of pimeloyl-CoA (as substrate). […] The release of Coenzyme A was monitored by absorbance at 412 nm. The absorbance associated with the substrate only control, which contained boiled enzyme, was subtracted from the active enzyme assay absorbance and compared to the empty vector control.

[3] = Carboxylate reductase activity assay (pimelate to pimelate semialdehyde); details: purified enzyme enhanced by sfp gene product, 2 mM pimelate, 1 mM ATP, 1 mM NADPH, pH 7.5, room temperature, 20 min, against empty vector control
Experimental: A sequence encoding a HIS-tag was added to the genes from Segniliparus rugosus and Segniliparus rotundus that encode the carboxylate reductases of SEQ ID NOs: 4 and 7, respectively (see FIGS. 7C and 7F), such that N-terminal HIS tagged carboxylate reductases could be produced. Each of the modified genes was cloned into a pET Duet expression vector along with a sfp gene encoding a HIS-tagged phosphopantetheine transferase from Bacillus subtilis, both under the T7 promoter. Each expression vector was transformed into a BL21[DE3] E. coli host and the resulting recombinant E. coli strains were cultivated at 37° C. in a 250 mL shake flask culture containing 50 mL LB media and antibiotic selection pressure, with shaking at 230 rpm. Each culture was induced overnight at 37° C. using an auto-induction media.
The pellet from each induced shake flask culture was harvested via centrifugation. Each pellet was resuspended and lysed via sonication, and the cell debris was separated from the supernatant via centrifugation. […]
Enzyme activity assays (i.e., from pimelate to pimelate semialdehyde) were performed in triplicate in a buffer composed of a final concentration of 50 mM HEPES buffer (pH=7.5), 2 mM pimelate, 10 mM MgCl2, 1 mM ATP and 1 mM NADPH. […] The consumption of NADPH was monitored by absorbance at 340 nm.

B1: SEQ ID NO 6: Mycobacterium massiliense carboxylate reductase, Genbank Accession No. EIV11143.1 (protein)
chain: MTNETNPQQEQLSRRIESLRESDPQFRAAQPDPAVAEQVLRPGLHLSEAIAALMTGYAERPALGERARELVIDQDGRTTLRLLPRFDTTTYGELWSRTTSVAAAWHHDATHPVKAGDLVATLGFTSIDYTVLDLAIMILGGVAVPLQTSAPASQWTTILAEAEPNTLAVSIELIGAAMESVRATPSIKQVVVFDYTPEVDDQREAFEAASTQLAGTGIALETLDAVIARGAALPAAPLYAPSAGDDPLALLIYTSGSTGAPKGAMHSENIVRRWWIREDVMAGTENLPMIGLNFMPMSHIMGRGTLTSTLSTGGTGYFAASSDMSTLFEDMELIRPTALALVPRVCDMVFQRFQTEVDRRLASGDTASAEAVAAEVKADIRDNLFGGRVSAVMVGSAPLSEELGEFIESCFELNLTDGYGSTEAGMVFRDGIVQRPPVIDYKLVDVPELGYFSTDKPHPRGELLLKTDGMFLGYYKRPEVTASVFDADGFYMTGDIVAELAHDNIEIIDRRNNVLKLSQGEFVAVATLEAEYANSPVVHQIYVYGSSERSYLLAVVVPTPEAVAAAKGDAAALKTTIADSLQDIAKEIQLQSYEVPRDFIIEPQPFTQGNGLLTGIAKLARPNLKAHYGPRLEQMYAEIAEQQAAELRALHGVDPDKPALETVLKAAQALLGVSSAELAADAHFTDLGGDSLSALSFSDLLRDIFAVEVPVGVIVSAANDLGGVAKFVDEQRHSGGTRPTAETVHGAGHTEIRAADLTLDKFIDEATLHAAPSLPKAAGIPHTVLLTGSNGYLGHYLALEWLERLDKTDGKLIVIVRGKNAEAAYGRLEEAFDTGDTELLAHFRSLADKHLEVLAGDIGDPNLGLDADTWQRLADTVDVIVHPAALVNHVLPYNQLFGPNVVGTAEIIKLAITTKIKPVTYLSTVAVAAYVDPTTFDEESDIRLISAVRPIDDGYANGYGNAKWAGEVLLREAHDLCGLPVAVFRSDMILAHSRYTGQLNVPDQFTRLILSLIATGIAPGSFYQAQTTGERPLAHYDGLPGDFTAEAITTLGTQVPEGSEGFVTYDCVNPHADGISLDNFVDWLIEAGYPIARIDNYTEWFTRFDTAIRGLSEKQKQHSLLPLLHAFEQPSAAENHGVVPAKRFQHAVQAAGIGPVGQDGTTDIPHLSRRLIVKYAKDLEQLGLL
modifications: Mycobacterium massiliense
- acceptance of N7-acetyl-7-aminoheptanoate as substrate (consumption of NADPH, absorbance at 340 nm) [1]: accepted N7-acetyl-7-aminoheptanoate as substrate

- acceptance of pimeloyl-CoA as substrate (release of Coenzyme A, absorbance at 412 nm) [2]: acceped pimeloyl-CoA as substrate
B2: tesB: Escherichia coli thioesterase encoded by tesB, GenBank Accession No. AAA24665.1 (protein, listed as Escherichia coli)
chain: MSQALKNLLTLLNLEKIEEGLFRGQSEDLGLRQVFGGQVVGQALYAAKETVPEERLVHSFHSYFLRPGDSKKPIIYDVETLRDGNSFSARRVAAIQNGKPIFYMTASFQAPEAGFEHQKTMPSAPAPDGLPSETQIAQSLAHLLPPVLKDKFICDRPLEVRPVEFHNPLKGHVAEPHRQVWIRANGSVPDDLRVHQYLLGYASDLNFLPVALQPHGIGFLEPGIQIATIDHSMWFHRPFNLNEWLLYSVESTSASSARGFVRGEFYTQDGVLVASTVQEGVMRNHN

- acceptance of pimelate as substrate (consumption of NADPH, absorbance at 340 nm) [3]: accepted pimelate as substrate
B3: SEQ ID NO 4: Segniliparus rugosus carboxylate reductase, Genbank Accession No. EFV11917.1 (protein, listed as Segniliparus rugosus)
chain: MGDGEERAKRFFQRIGELSATDPQFAAAAPDPAVVEAVSDPSLSFTRYLDTLMRGYAERPALAHRVGAGYETISYGELWARVGAIAAAWQADGLAPGDFVATVGFTSPDYVAVDLAAARSGLVSVPLQAGASLAQLVGILEETEPKVLAASASSLEGAVACALAAPSVQRLVVFDLRGPDASESAADERRGALADAEEQLARAGRAVVVETLADLAARGEALPEAPLFEPAEGEDPLALLIYTSGSTGAPKGAMYSQRLVSQLWGRTPVVPGMPNISLHYMPLSHSYGRAVLAGALSAGGTAHFTANSDLSTLFEDIALARPTFLALVPRVCEMLFQESQRGQDVAELRERVLGGRLLVAVCGSAPLSPEMRAFMEEVLGFPLLDGYGSTEALGVMRNGIIQRPPVIDYKLVDVPELGYRTTDKPYPRGELCIRSTSLISGYYKRPEITAEVFDAQGYYKTGDVMAEIAPDHLVYVDRSKNVLKLSQGEFVAVAKLEAAYGTSPYVKQIFVYGNSERSFLLAVVVPNAEVLGARDQEEAKPLIAASLQKIAKEAGLQSYEVPRDFLIETEPFTTQNGLLSEVGKLLRPKLKARYGEALEARYDEIAHGQADELRALRDGAGQRPVVETVVRAAVAISGSEGAEVGPEANFADLGGDSLSALSLANLLHDVFEVEVPVRIIIGPTASLAGIAKHIEAERAGASAPTAASVHGAGATRIRASELTLEKFLPEDLLAAAKGLPAADQVRTVLLTGANGWLGRFLALEQLERLARSGQDGGKLICLVRGKDAAAARRRIEETLGTDPALAARFAELAEGRLEVVPGDVGEPKFGLDDAAWDRLAEEVDVIVHPAALVNHVLPYHQLFGPNVVGTAEIIRLAITAKRKPVTYLSTVAVAAGVEPSSFEEDGDIRAVVPERPLGDGYANGYGNSKWAGEVLLREAHELVGLPVAVFRSDMILAHTRYTGQLNVPDQFTRLVLSLLATGIAPKSFYQQGAAGERQRAHYDGIPVDFTAEAITTLGAEPSWFDGGAGFRSFDVFNPHHDGVGLDEFVDWLIEAGHPISRIDDHKEWFARFETAVRGLPEAQRQHSLLPLLRAYSFPHPPVDGSVYPTGKFQGAVKAAQVGSDHDVPHLGKALIVKYADDLKALGLL
